Assay [1] addresses human methylmalonyl-CoA epimerase p.Arg143Cys variant (human) (UniProt Q96PE7). Put plainly: crystal structure.
Assay [2] addresses human methylmalonyl-CoA epimerase, wild type (human) (UniProt Q96PE7). Put plainly: crystal structure.
The target is the same in assay [3].

Where two headings read alike, the source gives them in different places.

With “human methylmalonyl-CoA epimerase p.Arg143Cys variant (from UniProt Q96PE7 45-176) (enzyme)”, in assay [1], the stoichiometry N (as a rule, the number of molecules, sites or subunits per partner or assembly) came out at 2.

With “human methylmalonyl-CoA epimerase, wild type (from UniProt Q96PE7 45-176) (enzyme)”, the stoichiometry N in assay [2] and in assay [3] was 2 each time.

(Values after paper doi:10.1101/484048.)
